The supplement of paper PMC10065799, “High-throughput profiling of sequence recognition by tyrosine kinases and SH2 domains using bacterial peptide display” (eLife, 2023)

Each sequence was assayed against EPHB2 (UniProt P29323) (assay: phosphorylation enrichment, bacterial display (enrichment ratio); higher = better substrate or ligand; peptides without Tyr show the background).
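Also: 11-residue human phosphosite peptides and single-mutation variants displayed on the E. coli surface, counted by deep sequencing, each peptide's frequency after selection divided by its frequency in the unselected input library; frequency after pTyr selection over input frequency; kinase dosed for 20-30% of maximal phosphorylation in three min.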

EPHB2, sequence (P29323 whole entry, looked up): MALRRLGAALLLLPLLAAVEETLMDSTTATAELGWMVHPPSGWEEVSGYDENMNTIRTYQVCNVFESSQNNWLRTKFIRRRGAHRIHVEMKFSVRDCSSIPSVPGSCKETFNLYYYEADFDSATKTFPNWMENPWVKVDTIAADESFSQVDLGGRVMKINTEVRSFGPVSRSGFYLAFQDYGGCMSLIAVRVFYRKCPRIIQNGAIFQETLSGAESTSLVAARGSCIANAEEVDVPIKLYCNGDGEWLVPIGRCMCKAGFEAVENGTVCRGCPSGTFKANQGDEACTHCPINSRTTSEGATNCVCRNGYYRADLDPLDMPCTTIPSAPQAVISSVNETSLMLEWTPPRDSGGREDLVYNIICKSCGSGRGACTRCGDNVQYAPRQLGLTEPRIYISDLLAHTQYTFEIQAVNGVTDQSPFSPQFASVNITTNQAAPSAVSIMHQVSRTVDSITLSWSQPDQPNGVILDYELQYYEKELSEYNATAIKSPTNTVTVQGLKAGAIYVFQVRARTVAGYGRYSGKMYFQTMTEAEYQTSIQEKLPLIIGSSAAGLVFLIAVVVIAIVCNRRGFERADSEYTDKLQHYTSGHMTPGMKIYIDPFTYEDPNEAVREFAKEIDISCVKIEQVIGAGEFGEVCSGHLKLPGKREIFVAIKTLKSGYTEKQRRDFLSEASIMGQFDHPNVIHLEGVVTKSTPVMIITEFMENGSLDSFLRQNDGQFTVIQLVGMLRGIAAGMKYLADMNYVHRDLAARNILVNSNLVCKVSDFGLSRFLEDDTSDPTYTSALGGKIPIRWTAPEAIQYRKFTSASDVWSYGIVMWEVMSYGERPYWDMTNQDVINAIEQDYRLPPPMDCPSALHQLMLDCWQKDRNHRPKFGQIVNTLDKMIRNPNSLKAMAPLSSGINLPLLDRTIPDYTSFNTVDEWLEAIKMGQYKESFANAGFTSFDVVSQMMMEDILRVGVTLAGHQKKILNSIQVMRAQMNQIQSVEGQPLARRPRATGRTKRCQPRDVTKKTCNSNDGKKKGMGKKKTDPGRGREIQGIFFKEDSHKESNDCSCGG

Sequence | phosphorylation enrichment
EALDFCGEVRT [PTEN_Y155_Y155C] | 0.691
AIIEEYLHLND [EIF4G1_Y1253] | 0.498
HLMLQYDAVVN [SLC25A32_Y152_R147H] | 1.51
RKGGSYSQAAS [HLA-A_Y344_T345S] | 0.491
LRGEDYGFSVD [PRKCI_Y430] | 0.668
RHLREYQDLLN [DES_Y388] | 1.12
RTLSEYARRHV [RERE_Y1259_P1262R] | 0.373
LKKKQYTSIHH [APP_Y728] | 0.605
SPFAVYLFFTF [RPGRIP1_Y826_R827L_YF] | 0.744
DCAAIYGNEPE [AKR1A1_Y50] | 0.694
MAYDRYAAICS [OR8H2_Y123_H120Y] | 0.828
RGVTRYIFNRE [HLA-DQB1_Y62_Y58G_YF] | 0.766
YQLENCCNGGG [INS_Y108_Y108C] | 0.522
NYNPNYCFAGK [ALK_Y1096_D1091N] | 1.27
IWDLKYTIENP [SND1_Y178_R174W] | 0.498
AVLQPYIFVAT [CFTR_Y1014] | 0.804
SLALFYRNVFH [RBL1_Y792_K794N_YF] | 1.02

Sequence | phosphorylation enrichment
RFGKVYKAHLF [ROR2_Y488_G490A] | 0.583
VHNLDYFKKTT [FGFR3_Y647_YF] | 0.425
EAKENYGKTLK [CHL1_Y291_T287A] | 0.314
EDASEYFENFI [PARP4_Y214_F215Y_YF] | 0.806
GFFDLYGGEKF [PTPN11_Y66_D61G_YF] | 0.858
ESFRLYPPVPQ [CYP4B1_Y377] | 0.477
NTQRPHYKGGG [TYROBP_Y111_Y111H] | 0.332
LSSETYVKSFT [F5_Y2149_M2148T_YF] | 1.7
MKSIKYMDKEI [CCDC60_Y41] | 0.392
RSSGGYEPRGC [FUS_Y239_R244C] | 0.274
ESLRRYLENGK [HLA-B_Y195_W191S] | 0.362
FGGLRYGFGGL [KRTAP20-2_Y13_V17G_YF] | 0.448
DTERIYDDDFF [UBA1_Y560] | 0.62
IKETHYMVDKC | 0.531
ENPLDYGSAWA [AR_Y395] | 0.565
ENELTYFCCKK [CD59_Y86_YF] | 0.543

These sequences were tested against FGFR3 (UniProt P22607) in the same assay as above.
FGFR3, sequence (P22607 whole entry, looked up): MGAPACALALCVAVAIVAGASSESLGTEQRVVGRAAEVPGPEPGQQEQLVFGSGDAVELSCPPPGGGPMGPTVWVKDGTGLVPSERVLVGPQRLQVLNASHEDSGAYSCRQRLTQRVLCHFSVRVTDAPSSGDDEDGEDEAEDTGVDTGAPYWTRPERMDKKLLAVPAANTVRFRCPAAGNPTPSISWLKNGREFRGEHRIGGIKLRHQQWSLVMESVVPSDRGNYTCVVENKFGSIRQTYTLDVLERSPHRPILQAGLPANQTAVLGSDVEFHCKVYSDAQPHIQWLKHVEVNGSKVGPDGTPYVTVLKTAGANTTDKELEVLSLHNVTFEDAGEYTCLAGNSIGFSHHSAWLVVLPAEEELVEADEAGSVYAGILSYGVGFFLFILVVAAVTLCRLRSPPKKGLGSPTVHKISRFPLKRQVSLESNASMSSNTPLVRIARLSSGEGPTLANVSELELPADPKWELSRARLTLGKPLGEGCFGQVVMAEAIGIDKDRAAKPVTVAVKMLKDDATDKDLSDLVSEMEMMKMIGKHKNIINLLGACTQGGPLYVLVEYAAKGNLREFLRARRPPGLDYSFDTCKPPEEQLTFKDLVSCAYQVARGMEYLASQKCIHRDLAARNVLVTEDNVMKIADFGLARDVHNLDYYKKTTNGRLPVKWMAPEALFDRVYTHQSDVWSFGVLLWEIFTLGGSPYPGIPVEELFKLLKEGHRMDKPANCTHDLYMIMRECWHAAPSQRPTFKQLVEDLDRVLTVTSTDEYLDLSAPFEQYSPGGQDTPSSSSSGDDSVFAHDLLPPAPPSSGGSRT

Sequence | phosphorylation enrichment
EALDFCGEVRT [PTEN_Y155_Y155C] | 1.09
AIIEEYLHLND [EIF4G1_Y1253] | 0.736
HLMLQYDAVVN [SLC25A32_Y152_R147H] | 1.35
RKGGSYSQAAS [HLA-A_Y344_T345S] | 0.567
LRGEDYGFSVD [PRKCI_Y430] | 0.835
RHLREYQDLLN [DES_Y388] | 0.641
RTLSEYARRHV [RERE_Y1259_P1262R] | 0.494
LKKKQYTSIHH [APP_Y728] | 0.903
SPFAVYLFFTF [RPGRIP1_Y826_R827L_YF] | 0.63
DCAAIYGNEPE [AKR1A1_Y50] | 0.734
MAYDRYAAICS [OR8H2_Y123_H120Y] | 0.687
RGVTRYIFNRE [HLA-DQB1_Y62_Y58G_YF] | 1.27
YQLENCCNGGG [INS_Y108_Y108C] | 0.621
NYNPNYCFAGK [ALK_Y1096_D1091N] | 0.642
IWDLKYTIENP [SND1_Y178_R174W] | 0.82
AVLQPYIFVAT [CFTR_Y1014] | 1.41
SLALFYRNVFH [RBL1_Y792_K794N_YF] | 0.649

Sequence | phosphorylation enrichment
RFGKVYKAHLF [ROR2_Y488_G490A] | 0.733
VHNLDYFKKTT [FGFR3_Y647_YF] | 0.617
EAKENYGKTLK [CHL1_Y291_T287A] | 0.441
EDASEYFENFI [PARP4_Y214_F215Y_YF] | 1.58
GFFDLYGGEKF [PTPN11_Y66_D61G_YF] | 0.575
ESFRLYPPVPQ [CYP4B1_Y377] | 0.491
NTQRPHYKGGG [TYROBP_Y111_Y111H] | 0.486
LSSETYVKSFT [F5_Y2149_M2148T_YF] | 0.735
MKSIKYMDKEI [CCDC60_Y41] | 0.389
RSSGGYEPRGC [FUS_Y239_R244C] | 0.538
ESLRRYLENGK [HLA-B_Y195_W191S] | 0.45
FGGLRYGFGGL [KRTAP20-2_Y13_V17G_YF] | 0.536
DTERIYDDDFF [UBA1_Y560] | 0.876
IKETHYMVDKC | 0.543
ENPLDYGSAWA [AR_Y395] | 0.744
ENELTYFCCKK [CD59_Y86_YF] | 0.711
